Usually Kd stands for the equilibrium constant for the complex coming apart.

These results are taken from article PMC9858354 (2023).

In the assay the target is T1, human C-C motif chemokine receptor-like 2 (CCRL2) isoform b, on HEK-huCCRL2 cells (human, UniProt O00421 1-344).
T1 chain: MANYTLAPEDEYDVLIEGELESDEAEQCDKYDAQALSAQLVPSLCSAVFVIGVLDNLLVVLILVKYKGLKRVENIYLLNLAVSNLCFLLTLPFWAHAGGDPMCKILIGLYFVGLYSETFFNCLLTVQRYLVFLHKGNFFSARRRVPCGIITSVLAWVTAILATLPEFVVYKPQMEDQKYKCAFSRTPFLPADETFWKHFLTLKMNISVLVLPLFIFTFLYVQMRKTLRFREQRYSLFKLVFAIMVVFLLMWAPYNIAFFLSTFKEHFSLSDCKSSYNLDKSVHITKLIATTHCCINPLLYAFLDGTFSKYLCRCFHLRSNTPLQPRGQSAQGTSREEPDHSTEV
Briefly: SPR. A general note: In SPR one partner is held on a chip, and binding of the other changes the refractive index at the surface.

B1: recombinant active human chemerin (residues 21-157), unlabeled (ligand)
chain: ELTEAQRRGLQVALEEFHKHPPVQWAFQETSVESAVDTPFPAGIFVRLEFKLQQTSCRKRDWKKPECKVRPNGRKRKCLACIKLGSEDKVLGRLVHCPIETQVLREAEEHQETQCLRVQRAGEDPHSFYFPGQFAFS
Consider B1, for which binding was put at a Kd of 7.48 nM. This lies in the single-digit nanomolar range.
